Measured values published in patent US20220064329A1 (Novo Nordisk, published 2022).

T1: recombinant human activated Factor VII (FVIIa) (human, UniProt P08709 61-212; P08709 213-466, ten glutamate residues of the Gla domain may be gamma-carboxylated)
T1 construct: chains tethered by a disulfide bond; also called Factor VIIa; rFVIIa
T1 sequence 1: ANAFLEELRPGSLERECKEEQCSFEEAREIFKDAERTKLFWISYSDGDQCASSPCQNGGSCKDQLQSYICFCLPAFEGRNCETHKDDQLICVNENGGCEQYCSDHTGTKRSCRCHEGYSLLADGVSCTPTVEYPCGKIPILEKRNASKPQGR
T1 sequence 2: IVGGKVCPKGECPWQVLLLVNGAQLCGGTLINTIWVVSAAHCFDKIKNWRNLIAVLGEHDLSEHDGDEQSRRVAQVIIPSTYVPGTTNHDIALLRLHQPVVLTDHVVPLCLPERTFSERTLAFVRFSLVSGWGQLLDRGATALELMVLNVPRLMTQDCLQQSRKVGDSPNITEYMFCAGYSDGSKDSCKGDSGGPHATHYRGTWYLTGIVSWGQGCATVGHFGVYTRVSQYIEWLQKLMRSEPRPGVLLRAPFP


Target: T1, recombinant human activated Factor VII …
Assay: BLI (Fortebio)

| Kd [nM] | Binder |
| --- | --- |
| 14 | VH SEQ ID NO 602 / VL SEQ ID NO 502 (antibody, IgG4, V domains shown, humanized 11F2; IgG4 S228P/kappa) VH: QVQLQESGPGLVKPSQTLSLTCTVSGGSISSDSAWSWIRQPPGKGLEWIGYIQYSGSTNYNPSLKSRVTISVDTSKNQFSLKLSSVTAADTAVYYCARSVNYYGNSFAVGYWGQGTLVTVSS VL: EIVLTQSPATLSLSPGERATLSCRASQGVSDYLHWYQQKPGQAPRLLIKYTSQPATGIPARFSGSGSGTDFTLTISSLEPEDFAVYYCQNGHSFPLTFGQGTKLEIK |
| 780 | VH SEQ ID NO 610 / VL SEQ ID NO 414 (antibody, IgG4, V domains shown, humanized 11F2; IgG4 S228P/kappa) VH: QVQLQESGPGLVKPSQTLSLTCTVSGGSITSDSAWSWIRQPPGKGLEWIGYIQYSGSTNYNPSLKSRVTISVDTSKNQFSLKLSSVTAADTAVYYCARSVNYYGNSFAVGYWGQGTLVTVSS VL: EIVLTQSPATLSLSPGERATLSCRASQGVSDYLAWYQQKPGQAPRLLIKYASQPATGIPARFSGSGSGTDFTLTISSLEPEDFAVYYCQNGHSFPLTFGQGTKLEIK |
| 16 | VH SEQ ID NO 610 / VL SEQ ID NO 342 (antibody, IgG4, V domains shown, humanized 11F2; IgG4 S228P/kappa) VH: QVQLQESGPGLVKPSQTLSLTCTVSGGSITSDSAWSWIRQPPGKGLEWIGYIQYSGSTNYNPSLKSRVTISVDTSKNQFSLKLSSVTAADTAVYYCARSVNYYGNSFAVGYWGQGTLVTVSS VL: EIVLTQSPATLSLSPGERATLSCRASQGISDYLHWYQQKPGQAPRLLIKYTSQPATGIPARFSGSGSGRDFTLTISSLEPEDFAVYYCQNGHSFPLTFGAGTKLELK |
| 11 | VH SEQ ID NO 610 / VL SEQ ID NO 358 (antibody, IgG4, V domains shown, humanized 11F2; IgG4 S228P/kappa) VH: QVQLQESGPGLVKPSQTLSLTCTVSGGSITSDSAWSWIRQPPGKGLEWIGYIQYSGSTNYNPSLKSRVTISVDTSKNQFSLKLSSVTAADTAVYYCARSVNYYGNSFAVGYWGQGTLVTVSS VL: EIVLTQSPATLSLSPGERATLSCRASQGISDYLHWYQQKPGQAPRLLIKYTSQPATGIPARFSGSGSGTDFTLTISSLEPEDFAVYYCQNGHSFPLTFGQGTKLEIK |
| 16 | VH SEQ ID NO 610 / VL SEQ ID NO 454 (antibody, IgG4, V domains shown, humanized 11F2; IgG4 S228P/kappa) VH: QVQLQESGPGLVKPSQTLSLTCTVSGGSITSDSAWSWIRQPPGKGLEWIGYIQYSGSTNYNPSLKSRVTISVDTSKNQFSLKLSSVTAADTAVYYCARSVNYYGNSFAVGYWGQGTLVTVSS VL: EIVLTQSPATLSLSPGERATLSCRASQGVSDYLHWYQQKPGEAPRLLIKYASQPATGIPARFSGSGSGTDFTLTISSLEPEDFAVYYCQNGHSFPLTFGQGTKLEIK |
| 380 | VH SEQ ID NO 610 / VL SEQ ID NO 390 (antibody, IgG4, V domains shown, humanized 11F2; IgG4 S228P/kappa) VH: QVQLQESGPGLVKPSQTLSLTCTVSGGSITSDSAWSWIRQPPGKGLEWIGYIQYSGSTNYNPSLKSRVTISVDTSKNQFSLKLSSVTAADTAVYYCARSVNYYGNSFAVGYWGQGTLVTVSS VL: EIVLTQSPATLSLSPGERATLSCRASQGVSDYLAWYQQKPGEAPRLLIKYASQPATGIPARFSGSGSGTDFTLTISSLEPEDFAVYYCQNGHSFPLTFGQGTKLEIK |
| 49 | VH SEQ ID NO 610 / VL SEQ ID NO 446 (antibody, IgG4, V domains shown, humanized 11F2; IgG4 S228P/kappa) VH: QVQLQESGPGLVKPSQTLSLTCTVSGGSITSDSAWSWIRQPPGKGLEWIGYIQYSGSTNYNPSLKSRVTISVDTSKNQFSLKLSSVTAADTAVYYCARSVNYYGNSFAVGYWGQGTLVTVSS VL: EIVLTQSPATLSLSPGERATLSCRASQGVSDYLAWYQQKPGQAPRLLIKYTSQPATGIPARFSGSGSGTDFTLTISSLEPEDFAVYYCQNGHSFPLTFGQGTKLEIK |
| 16 | VH SEQ ID NO 610 / VL SEQ ID NO 470 (antibody, IgG4, V domains shown, humanized 11F2; IgG4 S228P/kappa) VH: QVQLQESGPGLVKPSQTLSLTCTVSGGSITSDSAWSWIRQPPGKGLEWIGYIQYSGSTNYNPSLKSRVTISVDTSKNQFSLKLSSVTAADTAVYYCARSVNYYGNSFAVGYWGQGTLVTVSS VL: EIVLTQSPATLSLSPGERATLSCRASQGVSDYLHWYQQKPGQAPRLLIKYASQPATGIPARFSGSGSGTDFTLTISSLEPEDFAVYYCQNGHSFPLTFGQGTKLEIK |
| 11 | VH SEQ ID NO 610 / VL SEQ ID NO 326 (antibody, IgG4, V domains shown, humanized 11F2; IgG4 S228P/kappa) VH: QVQLQESGPGLVKPSQTLSLTCTVSGGSITSDSAWSWIRQPPGKGLEWIGYIQYSGSTNYNPSLKSRVTISVDTSKNQFSLKLSSVTAADTAVYYCARSVNYYGNSFAVGYWGQGTLVTVSS VL: EIVLTQSPATLSLSPGERATLSCRASQGISDYLHWYQQKPGEAPRLLIKYTSQPATGIPARFSGSGSGTDFTLTISSLEPEDFGVYYCQNGHSFPLTFGAGTKLELK |
| 11 | VH SEQ ID NO 610 / VL SEQ ID NO 350 (antibody, IgG4, V domains shown, humanized 11F2; IgG4 S228P/kappa) VH: QVQLQESGPGLVKPSQTLSLTCTVSGGSITSDSAWSWIRQPPGKGLEWIGYIQYSGSTNYNPSLKSRVTISVDTSKNQFSLKLSSVTAADTAVYYCARSVNYYGNSFAVGYWGQGTLVTVSS VL: EIVLTQSPATLSLSPGERATLSCRASQGISDYLHWYQQKPGQAPRLLIKYTSQPATGIPARFSGSGSGTDFTLTISSLEPEDFAVYYCQNGHSFPLTFGAGTKLELK |
| 17 | VH SEQ ID NO 610 / VL SEQ ID NO 462 (antibody, IgG4, V domains shown, humanized 11F2; IgG4 S228P/kappa) VH: QVQLQESGPGLVKPSQTLSLTCTVSGGSITSDSAWSWIRQPPGKGLEWIGYIQYSGSTNYNPSLKSRVTISVDTSKNQFSLKLSSVTAADTAVYYCARSVNYYGNSFAVGYWGQGTLVTVSS VL: EIVLTQSPATLSLSPGERATLSCRASQGVSDYLHWYQQKPGQAPRLLIKYASQPATGIPARFSGSGSGTDFTLTISSLEPEDFAVYYCQNGHSFPLTFGAGTKLEIK |
| 33 | VH SEQ ID NO 610 / VL SEQ ID NO 478 (antibody, IgG4, V domains shown, humanized 11F2; IgG4 S228P/kappa) VH: QVQLQESGPGLVKPSQTLSLTCTVSGGSITSDSAWSWIRQPPGKGLEWIGYIQYSGSTNYNPSLKSRVTISVDTSKNQFSLKLSSVTAADTAVYYCARSVNYYGNSFAVGYWGQGTLVTVSS VL: EIVLTQSPATLSLSPGERATLSCRASQGVSDYLHWYQQKPGQAPRLLIKYASQPATGIPARFSGSGSGTDFTLTISSLEPEDFAVYYCQQGHSFPLTFGQGTKLEIK |
| 480 | VH SEQ ID NO 610 / VL SEQ ID NO 406 (antibody, IgG4, V domains shown, humanized 11F2; IgG4 S228P/kappa) VH: QVQLQESGPGLVKPSQTLSLTCTVSGGSITSDSAWSWIRQPPGKGLEWIGYIQYSGSTNYNPSLKSRVTISVDTSKNQFSLKLSSVTAADTAVYYCARSVNYYGNSFAVGYWGQGTLVTVSS VL: EIVLTQSPATLSLSPGERATLSCRASQGVSDYLAWYQQKPGQAPRLLIKYASQPATGIPARFSGSGSGTDFTLTISSLEPEDFAVYYCQNGHSFPLTFGAGTKLEIK |
| 1500 | VH SEQ ID NO 610 / VL SEQ ID NO 430 (antibody, IgG4, V domains shown, humanized 11F2; IgG4 S228P/kappa) VH: QVQLQESGPGLVKPSQTLSLTCTVSGGSITSDSAWSWIRQPPGKGLEWIGYIQYSGSTNYNPSLKSRVTISVDTSKNQFSLKLSSVTAADTAVYYCARSVNYYGNSFAVGYWGQGTLVTVSS VL: EIVLTQSPATLSLSPGERATLSCRASQGVSDYLAWYQQKPGQAPRLLIKYASQPATGIPARFSGSGSGTDFTLTISSLEPEDFGVYYCQNGHSFPLTFGQGTKLEIK |
| 330 | VH SEQ ID NO 610 / VL SEQ ID NO 366 (antibody, IgG4, V domains shown, humanized 11F2; IgG4 S228P/kappa) VH: QVQLQESGPGLVKPSQTLSLTCTVSGGSITSDSAWSWIRQPPGKGLEWIGYIQYSGSTNYNPSLKSRVTISVDTSKNQFSLKLSSVTAADTAVYYCARSVNYYGNSFAVGYWGQGTLVTVSS VL: EIVLTQSPATLSLSPGERATLSCRASQGLSDYLAWYQQKPGEAPRLLIKYASQPATGIPARFSGSGSGTDFTLTISSLEPEDFAVYYCQNGHSFPLTFGQGTKLEIK |
| 13 | VH SEQ ID NO 610 / VL SEQ ID NO 334 (antibody, IgG4, V domains shown, humanized 11F2; IgG4 S228P/kappa) VH: QVQLQESGPGLVKPSQTLSLTCTVSGGSITSDSAWSWIRQPPGKGLEWIGYIQYSGSTNYNPSLKSRVTISVDTSKNQFSLKLSSVTAADTAVYYCARSVNYYGNSFAVGYWGQGTLVTVSS VL: EIVLTQSPATLSLSPGERATLSCRASQGISDYLHWYQQKPGQAPRLLIKYASQPATGIPARFSGSGSGTDFTLTISSLEPEDFAVYYCQNGHSFPLTFGQGTKLEIK |
| 10 | VH SEQ ID NO 610 / VL SEQ ID NO 318 (antibody, IgG4, V domains shown, humanized 11F2; IgG4 S228P/kappa) VH: QVQLQESGPGLVKPSQTLSLTCTVSGGSITSDSAWSWIRQPPGKGLEWIGYIQYSGSTNYNPSLKSRVTISVDTSKNQFSLKLSSVTAADTAVYYCARSVNYYGNSFAVGYWGQGTLVTVSS VL: EIVLTQSPATLSLSPGERATLSCRASQGISDYLHWYQQKPGEAPRLLIKYTSQPATGIPARFSGSGSGTDFTLTISSLEPEDFAVYYCQNGHSFPLTFGQGTKLEIK |
| 80 | VH SEQ ID NO 610 / VL SEQ ID NO 310 (antibody, IgG4, V domains shown, humanized 11F2; IgG4 S228P/kappa) VH: QVQLQESGPGLVKPSQTLSLTCTVSGGSITSDSAWSWIRQPPGKGLEWIGYIQYSGSTNYNPSLKSRVTISVDTSKNQFSLKLSSVTAADTAVYYCARSVNYYGNSFAVGYWGQGTLVTVSS VL: EIVLTQSPATLSLSPGERATLSCRASQGISDYLAWYQQKPGQAPRLLIKYASQPATGIPARFSGSGSGTDFTLTISSLEPEDFAVYYCQNGHSFPLTFGQGTKLEIK |
| 620 | VH SEQ ID NO 610 / VL SEQ ID NO 438 (antibody, IgG4, V domains shown, humanized 11F2; IgG4 S228P/kappa) VH: QVQLQESGPGLVKPSQTLSLTCTVSGGSITSDSAWSWIRQPPGKGLEWIGYIQYSGSTNYNPSLKSRVTISVDTSKNQFSLKLSSVTAADTAVYYCARSVNYYGNSFAVGYWGQGTLVTVSS VL: EIVLTQSPATLSLSPGERATLSCRASQGVSDYLAWYQQKPGQAPRLLIKYASQPATGIPARFSGSGSGTDFTLTISSLEPEDVAVYYCQNGHSFPLTFGQGTKLEIK |
| 17 | VH SEQ ID NO 610 / VL SEQ ID NO 382 (antibody, IgG4, V domains shown, humanized 11F2; IgG4 S228P/kappa) VH: QVQLQESGPGLVKPSQTLSLTCTVSGGSITSDSAWSWIRQPPGKGLEWIGYIQYSGSTNYNPSLKSRVTISVDTSKNQFSLKLSSVTAADTAVYYCARSVNYYGNSFAVGYWGQGTLVTVSS VL: EIVLTQSPATLSLSPGERATLSCRASQGLSDYLHWYQQKPGEAPRLLIKYASQPATGIPARFSGSGSGTDFTLTISSLEPEDFAVYYCQNGHSFPLTFGQGTKLEIK |
